Data: the DeepSol protein solubility set

Assay: soluble on expression in E. coli; label from the status in PepcDB or PDB records
With “MGSDKIHHHHHHMATVAFHTLGCKVNHYETEAIWQLFKEAGYERRDFEQTADVYVINTCTVTNTGDKKSRQVIRRAIRQNPDGVICVTGCYAQTSPAEIMAIPGVDIVVGTQDREKMLGYIDQYREERQPINGVSNIMKARVYEELDVPAFTDRTRASLKIQEGCNNFCTFCIIPWARGLLRSRDPEEVIKQAQQLVDAGYKEIVLTGIHTGGYGEDMKDYNFAKLLSELDTRVEGVKRIRISSIEASQITDEVIEVLDRSDKIVNHLHIPIQSGSNTVLKRMRRKYTMEFFADRLNKLKKALPGLAVTSDVIVGFPGETEEEFMETYNFIKEHKFSELHVFPYSKRTGTPAARMEDQVDENVKNERVHRLIALSDQLAKEYASQYENEVLEIIPEEAFKETEEENMFVGYTDNYMKVVFKGTEDMIGKIVKVKILKAGYPYNEGQFVRVVEDEITEHMRLSS” the “soluble on expression in E. coli” value was “not soluble”.
For “MGSDKIHHHHHHMAVINPFVVGGYVSPRYFCDRVAETENLIRNLINGRNVALVSTRRMGKTGLIRHCFYQPLIKEGYYTFFIDIYATSSLKEFVFALGKGIFEKLKPQGNKFIDRFFSIITSLRIGFKLDSITGEPILELGLGDIHAPETTLEEIFIYLEQADKPCIVAIDEFQQISSYPEKNLEAILRTKVQHCSNSNFVFAGSQRHIMMNIFNSPSRPFYQSVSMMHLGAIPLEVYKPFVKGLFEENGKKVTDQLVENVYTLFDGHTWYVQLILNELFILTDKKGICDVPMINLALNNIIATQDFTFQEIFSRLPEKQKEIMIAIAKEQKAKGVTSAAFIKKYRLTSASSVQSGLKGLLEKDMLTQESGGYQVYDRLFNIWLRRNY”, the “soluble on expression in E. coli” value was “not soluble”.
With “MGSDKIHHHHHHMAVSIEGSPPCSYFMCLQLYSQYIRYNHFMRLNDEQQMNEKHSDHADKTKMPSSETLKQVCQPEERVLGRADDGSVMEFMLQTEHGNTYLCRFPPGFISHAAIQLCTEEIWYFIQGEGVFWIKHEGIERQVPFNAGTALHAPCGGAMQFRNNGHLEAVAHVVTMPPWPGSDGAKLTKGPWESV” the “soluble on expression in E. coli” value was “not soluble”.
For “MGSDKIHHHHHHMAVSSNGGAIKAVIYDCDGVMFDSFEANLAFYQRIMEMMGRPRLSRDNEEQMRILHTYANREVLAHFFPSPGDWEEAVRCAGAIDYRELVPLMIMEEGFREALDTLKGRVGLGVCTNRSTSMDMVLRLFSLDSYFSIVMTASRVTNPKPHPEPLLKVLEHFGIGPREALFVGDSEVDRLSAEAAGVPFVAYKAPLPAAYRMEHHREIIDLLG”, the “soluble on expression in E. coli” value was “not soluble”.
In the case of “MGSDKIHHHHHHMAVTLYSSIATPHNKNTHHYFTRRTFLPDQQNSLWKIEAGFVRTFTYLENGTTVALGLWGPGDILGRALSKLEPYQMECLTKVEATIVPIEEWKNPTDTLLAHIQQAEELMVIRSYKKVDTMLIKLLAWLSKKFGSEVDKGRLIDMRLTHEDLAEMLGSTRVTITRILGQFEEEGLINRLSLHRIVLKEEDIWYYEI”, the “soluble on expression in E. coli” value is reported as “not soluble”.
For “MGSDKIHHHHHHMAYRSAPIADDIIWRAAPQPEDASLADAVRETIASTRKHLLDFIRLDETPPPAAMTLAQWTRPATFRSLLAAYSDHIYRHTPGLPRENKPLLSLWAQWYIGLMTPPLMLALLTQARAINVSAEHIHVEFHETGRAACFWLDVHQDNLATERSPEERMETLIVSALQPVIQALEATGDINAKLIWSNTGYLINWYLTEMKPLLGEALLATLRQRCFFEKQLSDGQDNPLWRTVVMRDGLLVRRTCCQRYRLPDVQQCGDCTLK”, the “soluble on expression in E. coli” value was “not soluble”.
With “MGSDKIHHHHHHMCVEGLTSSGSVNWHDAWLTLSDGVKLVARLWIPKGEGPWPALVMRQPYGRALASTVTYIHPGWWASHGYLVVVQDVRGQGDSEGHFNGFLQEASDTSQTHAWVRELPECNGRLGTYGFSYQGLTQLLAEPGTPPPDCLAPAMAGVDERNHWSCEGGAHWWHLGLAWGLQLAALQARRCGNWEAWRELRRSLEDDSYLYEGPALLKRHDPDGMSFRWLHQANQNDHGWVVHKPLDSWLRQPMLLLGGWWDPHLNGLLDLYQRSSQVGGSPELHIGPATHLQWWPDAQQLQLEFFDRHLKSSKALTNSRPHGRIWNITSCSWQTFASPTQTTTSANASWSLVSGGMACLDPSEGTLHQNKKGGGVVYVVHDPWRPVQSVGGHLSPKPGVAERSALDQRADVATFTSTALQEPLQLNGIPLLQLTVQSDQPGFDLCVALSIVNCNHSEVKQLSTGFLRVQGEQALRMLPRKVKLQPILADLERGEHLRLSLAGAAWPAIGVNPGHDRHPCGPPGPHCQVVTMTLQLNGSKLRFLSWNSGKIDFDLPQEF” the “soluble on expression in E. coli” value was “not soluble”.
In the case of “MGSDKIHHHHHHMDCSKASTDTEKMICASSRLQQLDAVLNKAYQGYVKKADKAQARQEQRTWLAERDRCKDDVCLGNEMVSRIQALSGSENISVITQASGQWDFILSVATCNLDSSYSTCEGPGTLDIFKKGSGDLFQRITMENLFIELNNKGEVTANLVEVYGENNSGLVIDDANFDHHADIMLRNGNNGAYGGPSYDVYLFDVEKQQFTQNAPLTELASSNLGLFDIDEKSKTITTFTKSGCCWHQWSAYQMANNKPVLIVETTEAYSEEKQAMVATTRELVSGKWKVKEEIVKIDEQ”, the “soluble on expression in E. coli” value is reported as “not soluble”.
With “MGSDKIHHHHHHMDDTDWIGETFTSTVGWDHLETLVDIGNRMAGSGGERAAAEATRDALAEYTRDARLSEFGIQGWERGDSAVHAGGSPVATQAHECIALPRSPAGEVTGELVDVGHGLPEDFEDADCEGQIVLARSDVPDWYDRYIHRREKYYHAVEAGAAGFIYRNHVDGVLPPTGSVGTADAPIGEIPAIGVASETGARLARRYAGENVTLSVDCETPKATSQNVHAELGPDTDERLLVTSHADAHDIAEGAMDNGAGTAMVVEVARALAGREDELATRVEFVAFGAEEVGLVGSNRLAGETTLDDVTAVLNFDGVVQGRTLKCYTHGFDALTAAAEDVADRLDHPISLTPEQGPHSDHWPFVQRGVPGYHVTSETGGEGRGWGHTHADTLDKLEPRTFREQAVLLTELAVALADDSARPAHKDPAEIANALEAQNLAEGMRITGDWPFGD” the “soluble on expression in E. coli” value was “not soluble”.
With “MGSDKIHHHHHHMDFIEVYPNALPNDLCDRLILAFEQHAGVVDGQTGNGVDLEKKISRDLTLDSFADLQPLKNELLGYTLKGTVDYFTKYSMALMGAVAVSVSDEQGQPVTLTPANFAALGAPRSDGLVKYLYRSGSINVQKYQQNKGGYPHWHSEQFPQNGHNEALHRVVLYMFYLNDMEEGGETEFYYQQRKISPKKGTMVIAPAGFTHTHRGNKPVSGDKYIATSWIMFNRAEQLYAVIA” the “soluble on expression in E. coli” value was “not soluble”.
In the case of “MGSDKIHHHHHHMDGVKCQFVNTNGITLHVAAAGREDGPLIVLLHGFPEFWYGWKNQIKPLVDAGYRVIAPDQRGYNLSDKPEGIDSYRIDTLRDDIIGLITQFTDEKAIVIGHDWGGAVAWHLASTRPEYLEKLIAINIPHPHVMKTVTPLYPPQWLKSSYIAYFQLPDIPEASLRENDYDTLDKAIGLSDRPALFTSEDVSRYKEAWKQPGALTAMLNWYRALRKGSLAEKPSYETVPYRMIWGMEDRFLSRKLAKETERHCPNGHLIFVDEASHWINHEKPAIVNQLILEYLKNQ”, the “soluble on expression in E. coli” value is reported as “not soluble”.
For “MGSDKIHHHHHHMDIGHRMKELRIQYGLTQQELADRAELTKGFISQLERNQNSPSVGTLLDIIQCLGMTPAEFFTDSEPEQIVYKANDYFEKIDEEKNSKVEWIIPNAQTRSMEPVRLTLHPGGSSEIYLPQECEEFGYVIKGTVKLCYGGKVHTVKAGESFYFKAGKKHFIENKSSKDAMLIWVSNPPSF”, the “soluble on expression in E. coli” value was “not soluble”.
With “MGSDKIHHHHHHMDIIVVGGGTSGLLSALALEKEGHNVIVFEKESYVGGLCRSEKIDGYSVDIGVHAITMLDNGPLIRLLNKYSRYLPNFRNYGDYYIRTDKLHRIPVSMHEWMTTPVIPNKDKVLITSKIMDLMTMGFTKDASVYDFVKEMGLSSTSVDFFNTIAYFLSGEDLENTPLWRFFTGAGYIPEDDILPFIYKDMKINPLKSTLVKKFGTERIINILNDGFISSIKNGSKKYINKFMTEHRYSTQGYPVGGVQSICNCITYSLRNTQIKNEEVKKITKNGKKYTVKTSEGEYTSDIIVYSAPAITLPKVAKINKIQKNKEKLSNIKFTKSTTVWIGDEKNYFPYLGSEIWIDNPCWASTVSNYDESLAPKGKHLMGFSFVNSKKEDALKTIESKLNLNTDKVDMLYVQETVPEQASCSIGQFFVYPKIDDTFFVVGTDSDPRSMGITRAAYSVEVMLSEFKNIYDTQKETAKK” the “soluble on expression in E. coli” value was “not soluble”.
With “MGSDKIHHHHHHMDIKVITRHAPSNYGSLLQSIATITTLERLGHKCEIIDYIRDDEHGLSAVKTNLNNKQRWSGNSLKKLAYIVLRYPEEKKAELNFREMRRKYLKLTQLCRTHDDLKRLDADIFMTGSDQVWGPTLNGHYDEAYFLSFVKDKRKIAYAASLGRTDFTAKILSEYKKLLSSYSGIAVRENTAVGLLRQMDIECAGQVLDPTLLLTGDEWSRMIKKDMGGKYVLVYQLHNNPALSKYAVRFAEHVGLPLYRVSPTFHQIRRGGKFIYLPDLPDFLSYIKNSTYFITDSFHGTAFALNFNRQFIEILPNNKTGNRNQSILQLTRLQDRIVTDYADCSISERMIDYERVNDILRKERIRSLGILKQLLRQ” the “soluble on expression in E. coli” value was “not soluble”.
In the case of “MGSDKIHHHHHHMDINTKNLKKNAFRVTKRRGITASRIRVPGGHLEAKFLSMIQNIAENYGDGSVHITSRQGFEIPGIKFEDMPKVNELLQPIIEGLNINQETALQGYSASGTRNITACVGNRVCPYGCYDTTSFAQRIEKAVFPHDLHFKIALTGCPNDCAKVRMHDFGIMGMTEPHYESDTCVSCGACVKVCKKKSVGALSAVNYKVVRRGEKCIGCGECVLKCPTGAWTRSEKTYYRLTLLGRTGKKNPRLGEDFIKWVDEDSIIKIILNTYDYVTKYIDPNAPGGKEHIGYIVDRTGFEEFKKWALKDVKLPSIAEVYTPIYWNGIKY”, the “soluble on expression in E. coli” value is reported as “not soluble”.
For “MGSDKIHHHHHHMDKFKTIALFMSTIETGSFSATAKKHATDPSTVSKAIKRLEEQLGLQLLYRSTRQLSLTSAGQKYADTVGSLYQQLESCEHELKSANNSYSGALKINLPVSYGRVYMLPMLSRFKKAYPDIELEVSFNDQYVDMISDAVDVSIRSGTLNDSRLVAQKLSPMAFVICASSDLLATRKVDISNEGLVALPWVLFRFKQTGKTMPINFSYQGCHIDIEPKKVTIVDDGETMAQMCAEGLGLSLMPHFNAKALVVAGKMKVVAILDEFPSSGVFIVYPKRKDLPRRTQVFIEFVKDYLKEIGETPSKTWLDTSINSS”, the “soluble on expression in E. coli” value was “not soluble”.
With “MGSDKIHHHHHHMDMTFKLQVFEGPLDLLLYLIEKNKVNIYDIPIVEITAQYMEYVNQMKKDNLDTLSEFLVMAATLLDIKSKMLLPKKEEEEQEQEDPRAELVQQLLEYKMYKCMANELKDRQLDAGKVWYKKKDIPDEVLAYEEPVNLEELVGDIRLSDLNRIFQSIMKRQEEKIDKVRSKFGKIEKEEVSLEEKMEYLTDYAASHKHFSFRGMLTASSSKVEVIVTFLAILELMKTGKLTIVQEHIFDDIRIESRIAA” the “soluble on expression in E. coli” value was “not soluble”.
With “MGSDKIHHHHHHMDNPVMSAITSLYPQVQFLQRQAASLLLYQSVLQTDVGIAFQELLQAIRYADADARGSLQAYGNYFHALATRKQNWEDYLVSQILIAENPFSKVTQQQDFKDLPPALISAVKHDLQVLQSLYECNSAVLSQWVQAVAHLPISPVVWYLEQDDMGSETALSLHHLEHWADAVEELATHYQKFGIGLFAQYRALRWQDGEFVGIPYPDPVKLGTLVGYESQQEALLKNTEFLLSGEKALHVLLYGSRGAGKSSLVKALLNEYSHRQLRLLEVSKADLKDLPKIVEQLRGVPQKFIIFVDDLSFEEDDDAFKALKVVLEGNLTARPHNVVVYATSNRRHLIREFFADRPSLKNNEEVHAGDTMQEKLSFSDRFGLTLTFESADQSTYLKIVRHLATQAGISISPEELEYQALQWATRHNGRSGRTAQQFIDFLKADTSVFATNNSILDTQS” the “soluble on expression in E. coli” value was “not soluble”.
